Measurements as given in paper PMC4156547.

Experiments:
[1] = target: HIV-1 gp41^27–194 (HIV-1 (HXB2)); assay: AUC
[2] = target: gp41^27–154 (HIV ectodomain) (HIV-1); assay: AUC

HIV-1 gp41^27–194 (domain or fragment)
stoichiometry N [1]: 3

gp41^27–154 (HIV ectodomain) (domain or fragment)
stoichiometry N [2]: 3
